In patent publication US20050080013A1 (Pfizer, published 2005):
Non-standard residues stand in square brackets, D forms with d. No end group written: not given here. *: point of attachment. Nal = naphthylalanine (isomer not specified); Dansyl = CN(C)c1cccc2c(S(=O)(=O)*)cccc12; Aib = CC(C)(N)C(=O)O

T1: lecithin:cholesterol acyltransferase (LCAT), purified from human plasma (human, UniProt P04180 25-440)
T1 sequence (looked up): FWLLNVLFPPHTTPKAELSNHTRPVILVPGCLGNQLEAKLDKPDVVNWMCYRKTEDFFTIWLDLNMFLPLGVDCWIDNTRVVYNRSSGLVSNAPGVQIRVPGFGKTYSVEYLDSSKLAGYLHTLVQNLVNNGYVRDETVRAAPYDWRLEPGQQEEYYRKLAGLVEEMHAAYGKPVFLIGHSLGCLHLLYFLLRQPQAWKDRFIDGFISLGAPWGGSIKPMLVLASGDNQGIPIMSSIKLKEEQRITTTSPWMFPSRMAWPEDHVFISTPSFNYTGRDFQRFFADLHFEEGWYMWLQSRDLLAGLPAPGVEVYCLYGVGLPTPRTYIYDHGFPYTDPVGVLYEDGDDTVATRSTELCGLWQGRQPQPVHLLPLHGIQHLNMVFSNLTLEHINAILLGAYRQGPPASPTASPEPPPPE


biological target: T1, lecithin:cholesterol acyltransferase …; assay: cell-based or functional assay

Binder | ACTIVITY (%) LCAT
PVLDFFRELLNE[Aib]LEALKQKLK [peptide 25] | 51%
PLLELFKELLQELLEALKQKLK [peptide 23] | 54%
PLFRELLNELLEALKQKLK [peptide 55] | 19%
XVLDLFRELLNELLEALKQKLKK (D-Pro (p) at 1) [peptide 5] | 90%
PVLDLFRELLNELLEGLKQKLK [peptide 22] | 54%
DWFKAFYDKFFEKFKEFF [peptide 247] | 3%
Ac-EWLEAFYKKVLEKLKELF-NH2 [peptide 239] | 11%
PVLDLFREKLNELLEALKQKLK [peptide 33] | 33%
[dP][dV][dL][dD][dE][dF][dR][dE][dK][dL][dN][dE][Aib][dL][dE][dA][dL][dK][dQ][dK][dL][dK] [peptide 44] | 25%
PVLDLFREGLNELLEALKQKLK [peptide 20] | 57%
Ac-DWLKAFYDKVAEKLKEAF-NH2 [peptide 240] | 10%
PVLDLFRELLNEL[Nal]EALKQKLK (not fully specified) [peptide 27] | 44%
PVLDLFRELLNEWLEALKQKLK [peptide 54] | 19%
GIKKFLGSIWKFIKAFVG [peptide 242] | 7%
PVLDLFRELLNELLEALKQ [peptide 60] | 16%
DWLKAFYDKVFEKFKEFF [peptide 245] | 4%
LDDLLQKWAEAFNQLLKK [peptide 237] | 11%
PVLDEFREKLNE[Aib]WEALKQKLK [peptide 42] | 25%
PVLDLFRELLNELLELLKQKLK [peptide 26] | 47%
PVLDLWRELLNE[Aib]LEALKQKLK [peptide 41] | 25%
PVLDEFRWKLNE[Aib]LEALKQKLK [peptide 61] | 16%

Binder | ACTIVITY (%) LCAT
PVLDFFREKLNE[Aib]LEALKQKLK [peptide 63] | 16%
VLDLFRELLNEGLEALKQKLK [peptide 47] | 23%
PVLDLFREKLNE[Aib]LEALKQKLK [peptide 46] | 23%
DWFKAFYDKVAEKFKEAF [peptide 243] | 5%
EWLEAFYKKVLEKLKELF [peptide 246] | 4%
PVLDEWREKLNE[Aib]LEALKQKLK [peptide 62] | 16%
LVLDLFRELLNELLEALKQKLK [peptide 59] | 17%
PVLDLFRELLNE[Aib]LEALKQKLK [peptide 6] | 80%
PVLDLFWELLNE[Aib]LEALKQKLK [peptide 51] | 20%
PVLDEFREKLWE[Aib]LEALKQKLK [peptide 43] | 25%
PVLDLFRELLNELLEALKQKLK [peptide 4] | 93%
PVLDLFRELLNE[Aib]LEAWKQKLK [peptide 38] | 29%
AVLDLFRELLNELLEALKQKLK [peptide 29] | 39%
PVLDLFNELLRELLEALQKKLK [peptide 40] | 25%
Ac-EWLKAFYEKVLEKLKELF-NH2 [peptide 238] | 19%
PVLDLFREWLNELLEALKQKLK [peptide 37] | 29%
PVLDLFRNLLEKLLEALEQKLK [peptide 49] | 22%
PVLDEFREKLNE[Aib]LEALKQKLK [peptide 45] | 24%
XVLDLFRELLNELLEALKQKLK (D-Pro (p) at 1) [peptide 21] | 57%
PVLDEFREKLNE[Aib]LEALKQKL [peptide 58] | 18%
PVLDLFRELLNELWEALKQKLK [peptide 28] | 40%

Binder | ACTIVITY (%) LCAT
XXLDLFRELLNELLEALKQKLK (D-Pro (p) at 1, D-Val (v) at 2) [peptide 48] | 22%
PVLDLFRELLNELLEALKQKKK [peptide 56] | 18%
PVLDLFRELLNELLEALQKKLK [peptide 24] | 53%
PVLDLFRELLWE[Aib]LEALKQKLK [peptide 50] | 21%
PVLDLFLELLNE[Aib]LEALKQKLK [peptide 31] | 34%
PLLELLKELLQELLEALKQKLK [peptide 36] | 31%
Dansyl-PVLDLFRELLNELLEALKQKLK [peptide 30] | 38%
VVLDLFRELLNELLEALKQKLK [peptide 53] | 19%
PVLD[Nal]FRELLNELLEALKQKLK (not fully specified) [peptide 34] | 32%
[Aib]VLDLFRELLNELLEALKQKLK [peptide 32] | 33%
PVLDLFRELLEELLKALKKKLK [peptide 39] | 25%
PVLDLFRELLNELLEWLKQKLK [peptide 3] | 98%
PVLDWFRELLNELLEALKQKLK [peptide 35] | 31%
PVLDLFRNLLEELLKALEQKLK [peptide 57] | 18%
PVWDEFREKLNE[Aib]LEALKQKLK [peptide 52] | 20%
DWLKAFYDKVAEKLKEAF [peptide 244] | 5%
Ac-PVLDLFRELLEEGKQKLK-NH2 [peptide 229] | 0%
DWFKAFYDKVFEKFKEFF [peptide 241] | 8%
Ac-PVLDLFREGLEELKQKLK-NH2 [peptide 228] | 0%
